This passage reports IC50 results from article PMC4138556.

This test concerns the target D/D domain of human regulatory RIIα subunits of PKA (human). The experiment in a line: AlphaScreen or HTRF. (In general: Bead proximity is the source of the signal in Alpha formats.)

Chain of D/D domain of human regulatory RIIα subunits of PKA (human) (P13861 2-44): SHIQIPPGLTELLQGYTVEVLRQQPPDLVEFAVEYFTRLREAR

The substance peptide AKAP18δ-L314E had a 50% inhibitory concentration (IC50) of 12.7 nM.

In general, IC50 refers to the midpoint of a concentration-inhibition curve. A low value points to greater potency.
